T1: MBP-CsTBH (TINY BRANCHED HAIR, HD-ZIP) (Cucumis sativus, UniProt A0A0A0LED8 1-240)
T1 sequence: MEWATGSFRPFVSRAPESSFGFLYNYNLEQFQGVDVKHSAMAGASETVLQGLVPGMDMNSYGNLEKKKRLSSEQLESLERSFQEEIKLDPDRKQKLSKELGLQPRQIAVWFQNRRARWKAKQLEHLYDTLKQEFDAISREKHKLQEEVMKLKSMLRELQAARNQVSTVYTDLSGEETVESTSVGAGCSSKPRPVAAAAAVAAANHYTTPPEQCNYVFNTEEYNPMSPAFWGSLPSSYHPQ


Target: T1, MBP-CsTBH (TINY BRANCHED HAIR, HD-ZIP)
Test: EMSA; EMSA kit (Beyotime GS009) reaction buffer, room temperature, 6% native PAGE; salt and pH not stated
Details: protein: recombinant; chain copies: 2; blunt

Binder | binding result
CsFLS promoter probe (dsDNA) DNA 1: AATTTAAAATAATTATTGGGATTTCAAAC DNA 2: GTTTGAAATCCCAATAATTATTTTAAATT | binds
Cs4CL promoter probe (dsDNA) DNA 1: CTTCCAAATTAATTATTGTTTTATGCAAA DNA 2: TTTGCATAAAACAATAATTAATTTGGAAG | binds
CsF3H promoter probe (dsDNA) DNA 1: GATTTGAGAAAATTATTGGGCTGGATTGT DNA 2: ACAATCCAGCCCAATAATTTTCTCAAATC | binds

— publication PMC10400037, “Novel players in organogenesis and flavonoid biosynthesis in cucumber glandular trichomes”
